From patent US20210054097A1 (Novo Nordisk, published 2021)
Each block holds one binder with its values, some of them ahead of it. Ends that are not written are not given here.

Columns and labels:
[1] = molecular target: T1, human plasma-derived Factor X zymogen (human, UniProt P00742 41-179; P00742 183-488); assay: apparent KD fitted from FXa generation assay
T1 construct: Plasma-derived, bought (Haematologic Technologies); also called FX; human FX
Protocol: The ability of the monovalent anti-FX Nanobody® (Nb) to promote FIXa-mediated FX-activation was determined in the presence of a procoagulant phospholipid membrane according to the principles described by Scheiflinger et al. (2008) J Thromb Haemost, 6:315-322. A Fab of mAb 13F62 (IgG1 isotype, variable sequences identified by SEQ ID NO:6 and 7), also found to bind the activation peptide, were included for comparison. Moreover, anti-FX antibodies as disclosed in U.S. Pat. No. 9,334,331 (J327 and L404-k in said publication), corresponding to the anti-FX arm of ACE910); and more recently in WO2018/021450 (J327 D31H and JYL280 in said publication) and WO2018/098363 (BIIB-12-917 represented by SEQ ID NO:427 and 615 in said publication) are stated to be suitable for use as part of anti-FIX/anti-FX bispecific FVIII mimetic compounds were, furthermore, included for comparison.
Each compound was tested individually in a concentration range from 0-1000 nM, 0-2000 nM, 0-4000 nM or 0-8000 nM by pre-incubation with 1-1.5 nM human plasma-derived FIXa (Haematologic Technologies Inc, USA) and 500 μM 25:75 phosphatidyl serine:phosphatidyl choline phospholipid vesicles (Haematologic Technologies Inc, USA) in assay buffer (50 mM HEPES, 100 mM NaCl, 5 mM CaCl₂, 0.1% (w/v) PEG8000, 1 mg/mL bovine serum albumin, pH 7.3) for 10 minutes. The reaction was initiated by addition of human plasma-derived FX (Haematologic Technologies Inc, USA) to a final concentration of 100 nM and a reaction volume of 50 μL. Following 20 minutes activation at room temperature while agitated (1000 RPM), the reaction was quenched by addition of 25 μL quench buffer (50 mM HEPES, 100 mM NaCl, 60 mM EDTA, 0.1% (w/v) PEG8000, 1 mg/mL bovine serum albumin, pH 7.3). The amount of FXa generated was determined by addition of 25 μL 2 mM S-2765 chromogenic substrate for FXa (Chromogenix, Sweden) and chromogenic substrate conversion was followed by measuring absorbance at 405 nm for 10 minutes in a microplate reader. The observed change in 405 nm absorbance (ΔAbs405/min) was fitted to the quadratic binding equation (eq. 1) to obtain the peak stimulatory activity and EC50.

[2] = molecular target: T1, human plasma-derived Factor X zymogen; assay: cell-based or functional assay
human activated Factor X = human activated Factor X (human, UniProt P00742 41-179; P00742 235-488); assay: cell-based or functional assay
Chain of human activated Factor X (P00742 41-179, chain 1 of 2): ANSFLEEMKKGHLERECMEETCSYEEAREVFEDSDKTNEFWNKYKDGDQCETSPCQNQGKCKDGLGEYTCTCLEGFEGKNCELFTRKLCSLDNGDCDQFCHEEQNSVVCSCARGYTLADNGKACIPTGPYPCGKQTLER
Chain of human activated Factor X (P00742 235-488, chain 2 of 2): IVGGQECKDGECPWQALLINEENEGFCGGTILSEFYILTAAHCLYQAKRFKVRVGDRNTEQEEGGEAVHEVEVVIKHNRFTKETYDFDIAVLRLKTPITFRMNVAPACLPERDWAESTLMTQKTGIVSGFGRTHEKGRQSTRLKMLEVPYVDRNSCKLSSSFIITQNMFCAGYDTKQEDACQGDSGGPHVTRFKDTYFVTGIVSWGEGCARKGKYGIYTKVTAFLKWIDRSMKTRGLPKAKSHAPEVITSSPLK

[3] = molecular target: T2, FX activation peptide 12-mer TENPFDLLDFNQ (human); assay: peptide ELISA
T2 peptide: TENPFDLLDFNQ-biotin
Protocol: (§1) The peptides were C-terminally conjugated to biotin and 50 μL of 1 μg/mL peptide solution was used for immobilization in discrete wells of the microtiter plate which was pre-coated with 1 μg/mL streptavidin. Each well was washed with washing buffer (10 mM Tris, 150 mM NaCl, 2.5 mM CaCl₂, 0.05% Tween 20, pH 8.60) followed by addition of 50 μL of 2 μg/mL FLAG-tagged anti-FX Nanobody® or IgG antibody to be tested. After 1 hour non-bound Nanobody®/antibody was washed off using washing buffer.
(§2) Bound anti-FX activation peptide ligand was detected by first binding a HRP-labelled secondary antibody (for FLAG-tagged Nanobodies: Anti-FLAG mAb M2-Peroxidase (HRP) (Sigma Aldrich, US), for antibody: Fcγ Fragment Specific Peroxidase AffiniPure F(ab′)₂ Fragment Goat Anti-Human IgG (Jackson ImmunoResearch Laboratories, Inc., US), or Peroxidase AffiniPure Goat Anti-Mouse IgG (Jackson ImmunoResearch Laboratories, Inc., US)) for 1 hour, and then adding 100 μL TMB-1 ELISA substrate (Kem-En-Tec Diagnostics, Denmark).

[4] = molecular target: T3, FX activation peptide 12-mer PTENPFDLLDFN (human); assay: peptide ELISA
T3 peptide: PTENPFDLLDFN-biotin
Protocol: as §1, §2

[5] = molecular target: T4, FX activation peptide 12-mer NPFDLLDFNQTQ (human); assay: peptide ELISA
T4 peptide: NPFDLLDFNQTQ-biotin
Protocol: as §1, §2

[6] = molecular target: T5, FX activation peptide 12-mer QTQPERGDNNLT (human); assay: peptide ELISA
T5 peptide: QTQPERGDNNLT-biotin
Protocol: as §1, §2

[7] = molecular target: T6, FX activation peptide 12-mer DSITWKPYDAAD (human); assay: peptide ELISA
T6 peptide: DSITWKPYDAAD-biotin
Protocol: as §1, §2

[8] = molecular target: T7, FX activation peptide 12-mer KPYDAADLDPTE (human); assay: peptide ELISA
T7 peptide: KPYDAADLDPTE-biotin
Protocol: as §1, §2

[9] = molecular target: T8, FX activation peptide 12-mer ITWKPYDAADLD (human); assay: peptide ELISA
T8 peptide: ITWKPYDAADLD-biotin
Protocol: as §1, §2

[10] = molecular target: T9, FX activation peptide 12-mer DFNQTQPERGDN (human); assay: peptide ELISA
T9 peptide: DFNQTQPERGDN-biotin
Protocol: as §1, §2

[11] = molecular target: T10, FX activation peptide 12-mer AADLDPTENPFD (human); assay: peptide ELISA
T10 peptide: AADLDPTENPFD-biotin
Protocol: as §1, §2

[12] = molecular target: T11, FX activation peptide 12-mer PDSITWKPYDAA (human); assay: peptide ELISA
T11 peptide: PDSITWKPYDAA-biotin
Protocol: as §1, §2

[13] = molecular target: T12, FX activation peptide 12-mer LDPTENPFDLLD (human); assay: peptide ELISA
T12 peptide: LDPTENPFDLLD-biotin
Protocol: as §1, §2

[14] = molecular target: T13, FX activation peptide 12-mer DPTENPFDLLDF (human); assay: peptide ELISA
T13 peptide: DPTENPFDLLDF-biotin
Protocol: as §1, §2

[15] = molecular target: T14, FX activation peptide 12-mer DLLDFNQTQPER (human); assay: peptide ELISA
T14 peptide: DLLDFNQTQPER-biotin
Protocol: as §1, §2

[16] = molecular target: T15, FX activation peptide 12-mer SITWKPYDAADL (human); assay: peptide ELISA
T15 peptide: SITWKPYDAADL-biotin
Protocol: as §1, §2

[17] = molecular target: T16, FX activation peptide 12-mer ENPFDLLDFNQT (human); assay: peptide ELISA
T16 peptide: ENPFDLLDFNQT-biotin
Protocol: as §1, §2

[18] = molecular target: T17, FX activation peptide 12-mer DAADLDPTENPF (human); assay: peptide ELISA
T17 peptide: DAADLDPTENPF-biotin
Protocol: as §1, §2

[19] = molecular target: T18, FX activation peptide 12-mer SGEAPDSITWKP (human); assay: peptide ELISA
T18 peptide: SGEAPDSITWKP-biotin
Protocol: as §1, §2

[20] = molecular target: T19, FX activation peptide 12-mer DLDPTENPFDLL (human); assay: peptide ELISA
T19 peptide: DLDPTENPFDLL-biotin
Protocol: as §1, §2

[21] = molecular target: T20, FX activation peptide 12-mer AQATSSSGEAPD (human); assay: peptide ELISA
T20 peptide: AQATSSSGEAPD-biotin
Protocol: as §1, §2

[22] = molecular target: T21, FX activation peptide 12-mer PFDLLDFNQTQP (human); assay: peptide ELISA
T21 peptide: PFDLLDFNQTQP-biotin
Protocol: as §1, §2

[23] = molecular target: T22, FX activation peptide 12-mer TWKPYDAADLDP (human); assay: peptide ELISA
T22 peptide: TWKPYDAADLDP-biotin
Protocol: as §1, §2

[24] = molecular target: T23, FX activation peptide 12-mer TQPERGDNNLTR (human); assay: peptide ELISA
T23 peptide: TQPERGDNNLTR-biotin
Protocol: as §1, §2

[25] = molecular target: T24, FX activation peptide 12-mer SSGEAPDSITWK (human); assay: peptide ELISA
T24 peptide: SSGEAPDSITWK-biotin
Protocol: as §1, §2

[26] = molecular target: T25, FX activation peptide 12-mer LLDFNQTQPERG (human); assay: peptide ELISA
T25 peptide: LLDFNQTQPERG-biotin
Protocol: as §1, §2

[27] = molecular target: T26, FX activation peptide 12-mer LDFNQTQPERGD (human); assay: peptide ELISA
T26 peptide: LDFNQTQPERGD-biotin
Protocol: as §1, §2

[28] = molecular target: T27, FX activation peptide 12-mer FDLLDFNQTQPE (human); assay: peptide ELISA
T27 peptide: FDLLDFNQTQPE-biotin
Protocol: as §1, §2

[29] = molecular target: T28, FX activation peptide 12-mer SSSGEAPDSITW (human); assay: peptide ELISA
T28 peptide: SSSGEAPDSITW-biotin
Protocol: as §1, §2

[30] = molecular target: T29, FX activation peptide 12-mer ATSSSGEAPDSI (human); assay: peptide ELISA
T29 peptide: ATSSSGEAPDSI-biotin
Protocol: as §1, §2

[31] = molecular target: T30, FX activation peptide 12-mer ADLDPTENPFDL (human); assay: peptide ELISA
T30 peptide: ADLDPTENPFDL-biotin
Protocol: as §1, §2

[32] = molecular target: T31, FX activation peptide 12-mer PYDAADLDPTEN (human); assay: peptide ELISA
T31 peptide: PYDAADLDPTEN-biotin
Protocol: as §1, §2

[33] = molecular target: T32, FX activation peptide 12-mer EAPDSITWKPYD (human); assay: peptide ELISA
T32 peptide: EAPDSITWKPYD-biotin
Protocol: as §1, §2

[34] = molecular target: T33, FX activation peptide 12-mer TSSSGEAPDSIT (human); assay: peptide ELISA
T33 peptide: TSSSGEAPDSIT-biotin
Protocol: as §1, §2

[35] = molecular target: T34, FX activation peptide 12-mer YDAADLDPTENP (human); assay: peptide ELISA
T34 peptide: YDAADLDPTENP-biotin
Protocol: as §1, §2

[36] = molecular target: T35, FX activation peptide 12-mer WKPYDAADLDPT (human); assay: peptide ELISA
T35 peptide: WKPYDAADLDPT-biotin
Protocol: as §1, §2

[37] = molecular target: T36, FX activation peptide 12-mer FNQTQPERGDNN (human); assay: peptide ELISA
T36 peptide: FNQTQPERGDNN-biotin
Protocol: as §1, §2

[38] = molecular target: T37, FX activation peptide 12-mer QATSSSGEAPDS (human); assay: peptide ELISA
T37 peptide: QATSSSGEAPDS-biotin
Protocol: as §1, §2

[39] = molecular target: T38, FX activation peptide 12-mer APDSITWKPYDA (human); assay: peptide ELISA
T38 peptide: APDSITWKPYDA-biotin
Protocol: as §1, §2

[40] = molecular target: T39, FX activation peptide 12-mer GEAPDSITWKPY (human); assay: peptide ELISA
T39 peptide: GEAPDSITWKPY-biotin
Protocol: as §1, §2

T1 sequence (P00742 41-179, chain 1 of 2): as the sequence (P00742 41-179, chain 1 of 2) above
T1 sequence (P00742 183-488, chain 2 of 2): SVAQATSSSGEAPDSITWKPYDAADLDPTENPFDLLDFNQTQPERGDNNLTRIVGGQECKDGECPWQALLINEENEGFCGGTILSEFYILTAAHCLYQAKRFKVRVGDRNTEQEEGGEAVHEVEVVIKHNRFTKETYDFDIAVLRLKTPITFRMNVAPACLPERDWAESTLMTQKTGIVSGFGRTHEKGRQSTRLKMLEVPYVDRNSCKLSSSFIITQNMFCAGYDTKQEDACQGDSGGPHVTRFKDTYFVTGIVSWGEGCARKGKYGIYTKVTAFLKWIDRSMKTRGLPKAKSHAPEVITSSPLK

Kd [1]: 3.1 nM
Increase in FX activation (fold) [2]: 1.5 fold
B1: Fab of mAb 13F62 (Fab, V domains shown)
VH: EVQLVESGGGQVKPGGSLRLSCAASGFTFSTSSIYWVRQAPGKGLEWVSSISSGSSYIFYADSVKGRFTISRDNAKNSLFLQMNSLRAEDTAVYYCVSGYSRLLDYWGQGTLVTVSS
VL: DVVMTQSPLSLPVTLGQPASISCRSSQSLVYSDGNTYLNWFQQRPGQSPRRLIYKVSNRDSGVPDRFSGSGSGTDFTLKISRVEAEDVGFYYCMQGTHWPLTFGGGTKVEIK
notes: Fab of an IgG1 antibody; also called Fab of 13F62

FXa amidolytic activity (relative to free FXa, fold) (human activated Factor X): 0.94 fold
ELISA signal relative to background [3]: 29.7
ELISA signal relative to background [4]: 30.1
ELISA signal relative to background [5]: 28.6
ELISA signal relative to background [7]: 3.61
ELISA signal relative to background [8]: 0.77
ELISA signal relative to background [9]: 4.23
ELISA signal relative to background [10]: 1.23
ELISA signal relative to background [11]: 0.77
ELISA signal relative to background [12]: 1.89
ELISA signal relative to background [13]: 31
ELISA signal relative to background [14]: 29.8
ELISA signal relative to background [15]: 0.82
ELISA signal relative to background [16]: 7.95
ELISA signal relative to background [17]: 28.7
ELISA signal relative to background [18]: 0.77
ELISA signal relative to background [19]: 0.82
ELISA signal relative to background [20]: 26.4
ELISA signal relative to background [21]: 1.89
ELISA signal relative to background [22]: 29.7
ELISA signal relative to background [23]: 1.95
ELISA signal relative to background [24]: 8.86
ELISA signal relative to background [25]: 0.73
ELISA signal relative to background [26]: 0.86
ELISA signal relative to background [27]: 0.8
ELISA signal relative to background [28]: 30.6
ELISA signal relative to background [29]: 0.77
ELISA signal relative to background [30]: 3.2
ELISA signal relative to background [31]: 1.25
ELISA signal relative to background [32]: 0.84
ELISA signal relative to background [33]: 1.64
ELISA signal relative to background [34]: 0.68
ELISA signal relative to background [35]: 0.84
ELISA signal relative to background [36]: 1.18
ELISA signal relative to background [37]: 1.77
ELISA signal relative to background [38]: 1.82
ELISA signal relative to background [39]: 1.59
ELISA signal relative to background [40]: 1.5
B2: mAb 13F62 (antibody, V domains shown)
VH: B1 VH
VL: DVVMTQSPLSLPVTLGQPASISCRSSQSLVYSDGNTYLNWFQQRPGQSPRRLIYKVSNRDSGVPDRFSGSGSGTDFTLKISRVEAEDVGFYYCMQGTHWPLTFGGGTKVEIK
notes: IgG1 isotype
ELISA signal relative to background [6]: 1.95

FXa amidolytic activity (relative to free FXa, fold) (human activated Factor X): 1.07 fold
Kd [1]: ~1700 nM
ELISA signal relative to background [8]: 1.89
ELISA signal relative to background [11]: 2.22
ELISA signal relative to background [21]: 1.92
ELISA signal relative to background [24]: 1.97
ELISA signal relative to background [27]: 2.21
ELISA signal relative to background [29]: 1.99
ELISA signal relative to background [31]: 2.34
ELISA signal relative to background [36]: 1.83
ELISA signal relative to background [38]: 1.97
Increase in FX activation (fold) [2]: > 25 fold
B3: Nb 721E08 (VHH)
VHH: EVQLVESGGGVVQPGGSLRLSCAASGRTFSTYSMGWFRQAPGKEREFVAAITRRGSRTYYADSVKGRFTISRDNSKNTVYLQMNSLRPEDTALYYCAADRRPADSYLDYWGQGTLVTVSS
notes: monovalent Nanobody; not shown: C-terminal FLAG3 and HIS6 tag
ELISA signal relative to background [6]: 1.96
